Reference: the RNAGym collection of RNA variant scans (doi:10.7554/elife.80360)

B1: HDV Ribozyme (parent)
chain: GGCCGGCAUGGUCCCAGCCUCCUCGCUGGCGCCGGCUGGGCAACAUUCCGAGGGGACCGUCCCCUCGGUAAUGGCGAAUGGGACCCA

Variants of: B1
Test: self-cleavage, relative activity (ratio to wild type); higher = more cleavage; co-transcriptional

| Variant | self-cleavage |
| --- | --- |
| C7U G74U | 0.202 |
| U20G A77G | 0.0692 |
| A43C G50C | 0.284 |
| G39U G40A | 0.807 |
| C24G C63U | 0.0875 |
| A16U G40A | 0.928 |
| A51G G59U | 1.1 |
| G10U C14U | 0.672 |
| C14U C33U | 0.975 |
| G2U G11U | 0.0529 |
| G39C G74A | 0.36 |
| U12G C75A | 0 |
| G17U U79A | 0.755 |
| C18U C24U | 0.141 |
| C32G G40U | 0.0791 |
| U9A C15A | 0.677 |
| U20C U27G | 0.185 |
| C58G A70G | 1.03 |
| C66U A87C | 0.875 |
| C21U C44A | 0.437 |
| C62U A78U | 0.282 |
| G5U G50C | 0.192 |
| U47C G55U | 0.831 |
| G29A A51C | 0.121 |

| Variant | self-cleavage |
| --- | --- |
| A8C G17U | 0.287 |
| C26G G34C | 0 |
| C24A G68A | 0.678 |
| C3A A42C | 0.162 |
| A45C C57G | 0.851 |
| C7G C44U | 0.0462 |
| C32G A83U | 0.166 |
| G29U U79A | 0.0386 |
| A16G C32U | 0.811 |
| G50A A78U | 0.4 |
| C64G G67A | 0.356 |
| C75A A78C | 0.104 |
| G53U G76U | 0.939 |
| C36A C49G | 0.0297 |
| G5C G29U | 0 |
| G25C G29U | 0.0773 |
| G1U C26G | 0.469 |
| G68U G73U | 0.0923 |
| C26A U72C | 0.867 |
| G28C A43C | 0.0573 |
| C18G U79C | 0.0639 |
| C33G C49A | 0.119 |
| G2A U12A | 0 |
| A16G U72C | 0.831 |

| Variant | self-cleavage |
| --- | --- |
| G6A G67C | 0.643 |
| C22U G76A | 0.643 |
| U47A U60A | 0.851 |
| G38U C84A | 0.174 |
| G10U C22U | 0.188 |
| G25U G40U | 0.193 |
| G5C C13G | 0.262 |
| C30G C32A | 0.115 |
| U20C G68U | 0.145 |
| U27A C75G | 0.095 |
| G28C C61A | 0.0755 |
| C7U C58U | 1.19 |
| G39U A70G | 0.637 |
| C61U U69G | 0.864 |
| G39C U72A | 0.0426 |
| C7U G11U | 0.16 |
| G25U G59U | 0.0511 |
| C57A C85U | 1.05 |
| C49G G73C | 0.136 |
| U20C G67A | 0.17 |
| C22G A83C | 0.0898 |
| A8C A83U | 0.237 |
| G34A G50C | 0.267 |
| A51C A70C | 1.03 |

| Variant | self-cleavage |
| --- | --- |
| U9C C66A | 1.04 |
| C13A U65G | 0.208 |
| U46G G53U | 0.262 |
| C21G U46A | 0.147 |
| C21U A51C | 0.332 |
| A45C A71C | 0.831 |
| G11U U20G | 0.0791 |
| C7U A51U | 1.13 |
| C32G C85G | 0.111 |
| C44A G53C | 0.686 |
| U65G C66G | 0.812 |
| U9A G31C | 0.287 |
| A43C G68A | 0.268 |
| C66G A71C | 1.03 |
| G11C U37C | 0.201 |
| U27C G34U | 0.185 |
| G35C U47G | 0.0923 |
| C30G U72A | 0.0536 |
| G40U U46C | 0.227 |
| G5U U47C | 0.185 |
| C24U U60C | 0.752 |
| G17U C84G | 0.439 |
| C32A A71U | 0.222 |
| G5U C61G | 0.262 |

| Variant | self-cleavage |
| --- | --- |
| G52U C85A | 0.784 |
| A51U G59C | 0.755 |
| A51U G59U | 1.02 |
| G40A U46C | 0.525 |
| C13U G35C | 0.166 |
| U20A G31C | 0.0475 |
| G5U G59A | 0.529 |
| C36G G39A | 0.0326 |
| U27G U69G | 0.798 |
| G11A C13G | 0.032 |
| C7G A45U | 0.383 |
| G53C C61A | 1.04 |
| U72G U79A | 0.534 |
| A70G C85U | 1.01 |
| G11A C49U | 0.386 |
| G53C C64A | 0.724 |
| C21U C24A | 0.0997 |
| G25A A45U | 0.0489 |
| G25U C57A | 0.192 |
| U37C C49G | 1.21 |
| G59A G74A | 0.431 |
| G5U A56U | 0.431 |
| G55C C75U | 0.0361 |
| C24G G81A | 0.0332 |

| Variant | self-cleavage |
| --- | --- |
| C7A C19G | 0.145 |
| C61G A87C | 0.983 |
| G35C A45C | 0 |
| C3A C13U | 0.213 |
| C7U G17U | 0.259 |
| G6U | 0.63 |
| G55C G68A | 0.967 |
| C18G G28U | 0.0405 |
| U12G | 0.922 |
| G10C G11A | 0.38 |
| G40C A45U | 0.211 |
| G10U A16C | 0.906 |
| U46G C49A | 0.391 |
| A8C G80C | 0.133 |
| G68U A77C | 0.232 |
| C3A G52C | 0.676 |
| C3A G52A | 0.699 |
| G52U A83U | 0.494 |
| A42C U65C | 0.268 |
| A42U A70U | 0.312 |
| U12A G55A | 0.415 |
| A42U A56C | 0.629 |
| C13A C30A | 0.0594 |
| G68A A83G | 0.522 |

| Variant | self-cleavage |
| --- | --- |
| C18U A78G | 0.285 |
| G55U A87G | 0.984 |
| A43C U65A | 0.623 |
| G35A A78C | 0.0528 |
| C14G G68U | 0.277 |
| G29A G38A | 0.0623 |
| A43G G80C | 0.208 |
| C49A C84A | 1.05 |
| C4U C63A | 0.95 |
| C26G A83G | 0.851 |
| C48U G73C | 0.422 |
| C18G G50U | 0.196 |
| C18G A78G | 0 |
| G59C G76U | 0.891 |
| C3G U20A | 0.0755 |
| C7A C13G | 0 |
| G80U A87G | 0.272 |
| C49U G82U | 0.47 |
| U27G A83C | 0.831 |
| C3A C44A | 0.103 |
| C41U U69C | 0.955 |
| U9G A87G | 1.15 |
| C26G G50A | 0.923 |
